Experimental findings from patent US6753413 are described below.

The subject of one data set is T1, GST-C53 (SEQ ID NO 6).
T1 sequence: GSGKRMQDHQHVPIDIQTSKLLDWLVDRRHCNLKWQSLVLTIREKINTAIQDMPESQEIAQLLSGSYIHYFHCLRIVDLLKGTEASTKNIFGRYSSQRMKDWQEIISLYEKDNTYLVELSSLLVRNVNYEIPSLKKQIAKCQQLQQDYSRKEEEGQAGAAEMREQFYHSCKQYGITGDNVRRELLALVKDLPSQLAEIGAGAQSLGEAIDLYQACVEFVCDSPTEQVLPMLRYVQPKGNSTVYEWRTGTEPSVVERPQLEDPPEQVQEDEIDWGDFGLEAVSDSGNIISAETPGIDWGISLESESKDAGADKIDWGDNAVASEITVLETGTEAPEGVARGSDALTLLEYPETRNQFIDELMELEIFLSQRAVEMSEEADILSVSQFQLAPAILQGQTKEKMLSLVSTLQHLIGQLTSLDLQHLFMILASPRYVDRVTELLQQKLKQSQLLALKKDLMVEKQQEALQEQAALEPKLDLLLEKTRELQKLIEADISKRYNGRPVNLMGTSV

In another data set the test system is T2, GST-C48 (SEQ. ID NO 4).
T2 sequence: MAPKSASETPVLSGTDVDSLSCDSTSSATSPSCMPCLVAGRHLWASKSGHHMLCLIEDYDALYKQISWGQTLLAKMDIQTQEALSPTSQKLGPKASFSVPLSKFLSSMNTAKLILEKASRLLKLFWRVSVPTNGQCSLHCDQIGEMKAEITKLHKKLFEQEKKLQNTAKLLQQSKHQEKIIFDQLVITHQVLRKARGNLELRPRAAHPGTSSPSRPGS

Data set [1] deals with reconstituted Nclk (GST-p25/GST-Cdk5 complex) [GST: P08515]. Description: cell-based or functional assay.

“reconstituted Nclk (GST-p25/GST-Cdk5 complex)”: the “phosphorylation by reconstituted Nclk (autoradiograph, Mg[γ-32P]ATP)” value was “the SEQ ID NO 4 (C48) and SEQ ID NO 6 (C53) proteins, but not the SEQ ID NO 2 (C42) protein, were phosphorylated by Cdk5 kinase” with GST-C53 (SEQ ID NO 6); “the SEQ ID NO 4 (C48) and SEQ ID NO 6 (C53) proteins, but not the SEQ ID NO 2 (C42) protein, were phosphorylated by Cdk5 kinase” with GST-C48 (SEQ. ID NO 4).

With “GST-C48 (SEQ. ID NO 4) (from UniProt Q9JLH5 1686-1903)”, the inhibition of Cdk5 kinase activity in data set [1] is less than 20%.

As for “GST-C53 (SEQ ID NO 6) (from UniProt Q9JLH7 1-504)”, in data set [1], the inhibition of Cdk5 kinase activity was less than 20%.
